This is an account of results in patent US20210253648A1.

The target in the assay is HLA-A2 MHC class I molecule on the surface of the target cells (no C2 peptide added) (human).

Substance “TCR CMV-pp65-PE STAR multimer reagent (Soluble T-Cell Antigen Receptor STAR Multimer, Altor Bioscience)” yielded a Percentage of Positive Cells of 0.96% and an iMFI of 70 RFU.
